The term Kd denotes the concentration at which binding is half-saturated.

The target in assay [1] is T1, CD13 on the surface of mouse articular chondrocytes (mouse (endogenous in primary articular chondrocytes)) (UniProt P97449).
T1 sequence: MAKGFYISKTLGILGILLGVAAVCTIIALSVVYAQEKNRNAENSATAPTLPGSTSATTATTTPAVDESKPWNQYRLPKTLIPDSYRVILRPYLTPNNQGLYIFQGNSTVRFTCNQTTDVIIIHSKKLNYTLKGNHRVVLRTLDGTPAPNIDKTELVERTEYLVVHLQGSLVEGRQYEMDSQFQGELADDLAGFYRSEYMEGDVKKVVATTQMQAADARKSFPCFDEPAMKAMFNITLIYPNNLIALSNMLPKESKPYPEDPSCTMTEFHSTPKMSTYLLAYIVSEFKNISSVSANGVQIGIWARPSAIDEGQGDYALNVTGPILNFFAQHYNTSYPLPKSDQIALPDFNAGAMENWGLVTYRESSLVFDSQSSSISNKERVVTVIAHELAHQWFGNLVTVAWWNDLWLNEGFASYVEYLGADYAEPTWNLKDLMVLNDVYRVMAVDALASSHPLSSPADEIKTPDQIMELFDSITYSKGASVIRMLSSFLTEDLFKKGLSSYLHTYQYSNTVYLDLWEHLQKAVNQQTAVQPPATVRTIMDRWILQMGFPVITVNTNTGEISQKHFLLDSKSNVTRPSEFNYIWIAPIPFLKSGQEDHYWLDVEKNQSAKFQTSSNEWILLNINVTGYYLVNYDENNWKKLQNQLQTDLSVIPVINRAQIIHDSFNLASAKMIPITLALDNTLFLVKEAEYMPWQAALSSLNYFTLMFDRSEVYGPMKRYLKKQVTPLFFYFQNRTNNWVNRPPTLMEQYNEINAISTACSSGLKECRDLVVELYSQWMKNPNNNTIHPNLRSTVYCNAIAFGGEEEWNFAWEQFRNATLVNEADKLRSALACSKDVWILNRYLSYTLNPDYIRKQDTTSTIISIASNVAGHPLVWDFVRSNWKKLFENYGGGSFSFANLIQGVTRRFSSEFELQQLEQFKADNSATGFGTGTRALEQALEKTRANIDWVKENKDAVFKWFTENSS

Assay [2] deals with T1, CD13 on the surface of mouse articular chondrocytes (mouse (endogenous in primary articular chondrocytes)). The source holds these as a separate data set.
For assay [3], the target named is Human recombinant CD13 (human) (UniProt P15144). In words: SPR; Biacore 3000; human recombinant CD13 amine-coupled to a CM5 chip (11,949 RU, 10 mM sodium acetate pH 5.0); analytes in HBS-EP (10 mM HEPES pH 7.4, 150 mM NaCl, 3 mM EDTA, 0.005% P20), 5 µl/min, 5 min injection, 8 min dissociation; 14-3-3ε 10 µM, antibodies 1 µg/ml; kinetics with 0, 5, 7.5, 10, 15, 20 µM 14-3-3ε; blank surface subtracted. A general note: In SPR one partner is held on a chip, and binding of the other changes the refractive index at the surface.

Assay [4] shares this target.

Sequence of UniProt P15144 (P15144 whole entry): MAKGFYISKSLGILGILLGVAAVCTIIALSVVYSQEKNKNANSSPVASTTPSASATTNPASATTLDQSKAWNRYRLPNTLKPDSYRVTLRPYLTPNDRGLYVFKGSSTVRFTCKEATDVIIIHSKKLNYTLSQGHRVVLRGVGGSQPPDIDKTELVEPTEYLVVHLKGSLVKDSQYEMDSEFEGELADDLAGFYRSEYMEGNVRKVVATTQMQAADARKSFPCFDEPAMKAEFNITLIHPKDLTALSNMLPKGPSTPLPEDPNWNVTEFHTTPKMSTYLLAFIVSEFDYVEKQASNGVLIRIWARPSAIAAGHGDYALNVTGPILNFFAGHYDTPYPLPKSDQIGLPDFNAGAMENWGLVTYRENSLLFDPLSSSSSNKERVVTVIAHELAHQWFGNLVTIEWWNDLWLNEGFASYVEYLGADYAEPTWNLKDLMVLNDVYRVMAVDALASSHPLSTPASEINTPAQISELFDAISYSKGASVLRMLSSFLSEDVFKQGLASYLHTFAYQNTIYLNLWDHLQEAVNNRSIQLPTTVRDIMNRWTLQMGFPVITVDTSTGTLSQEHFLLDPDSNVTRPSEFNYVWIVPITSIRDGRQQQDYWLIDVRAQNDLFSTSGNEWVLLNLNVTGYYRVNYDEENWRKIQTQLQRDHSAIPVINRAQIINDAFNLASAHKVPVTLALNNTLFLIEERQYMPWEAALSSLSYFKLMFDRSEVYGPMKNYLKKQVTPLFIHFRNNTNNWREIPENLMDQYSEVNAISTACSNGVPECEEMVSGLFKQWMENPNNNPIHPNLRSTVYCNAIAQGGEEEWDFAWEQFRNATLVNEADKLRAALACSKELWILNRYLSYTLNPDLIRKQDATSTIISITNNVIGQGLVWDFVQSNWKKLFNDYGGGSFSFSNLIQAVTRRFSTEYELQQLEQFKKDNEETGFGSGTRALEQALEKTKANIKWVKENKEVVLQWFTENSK

In assay [1], “Recombinant human 14-3-3ε (from UniProt P62258 1-255) (natural protein)” displayed a decrease of 14-3-3ε (1 µg/ml)-induced MMP-13 mRNA synthesis (qRT-PCR) in mouse chondrocytes by the synthetic CD13 peptide EFNpYVW, 0.5 and 5 µg/ml (30% to 56%) of 56%; an inhibition of 14-3-3ε (1 µg/ml)-induced MMP-3 mRNA production (qRT-PCR) in mouse chondrocytes by the synthetic CD13 peptide EFNpYVW, 0.5 and 5 µg/ml (48% to 62%) of 62%. Further, in assay [2], the decrease of 14-3-3ε (1 µg/ml)-induced MMP-13 mRNA expression (qRT-PCR) in murine chondrocytes by anti-CD13 blocking antibody AB108310, 1 and 5 µg/ml (47% to 88%) came to 88%; the decrease of 14-3-3ε (1 µg/ml)-induced MMP-13 release (ELISA) in murine chondrocytes by anti-CD13 blocking antibody AB108310, 1 and 5 µg/ml (29% to 32%, P>0.05) is 32%; the inhibition of 14-3-3ε (1 µg/ml)-induced MMP-3 mRNA expression (qRT-PCR) in murine chondrocytes by anti-CD13 blocking antibody AB108310, 1 and 5 µg/ml (64% to 90%) came out at 90%; the inhibition of 14-3-3ε (1 µg/ml)-induced MMP-3 protein release (ELISA) in murine chondrocytes by anti-CD13 blocking antibody AB108310, 1 and 5 µg/ml (61% to 87%) worked out at 87%. Further, in assay [3], the Kd was found to be 2450 nM and the response (resonance units) at 10 µM was 78 RU. Further, in assay [4], the decrease of 14-3-3ε-induced MMP-3 mRNA expression (qRT-PCR) in human osteoarthritis chondrocytes (endogenous human CD13) by anti-CD13 blocking antibody SJ1D1, 1 µg/ml worked out at 43% and the decrease of 14-3-3ε-induced MMP-3 protein release (ELISA) in human osteoarthritis chondrocytes (endogenous human CD13) by anti-CD13 blocking antibody SJ1D1, 1 µg/ml was 59%.

Values taken from article PMC4582189.
